Data taken from patent publication US20230125500A1, “ANGIOSTATIN NEUTRALIZING PEPTIDES DERIVED FROM ATP SYNTHASE ALPHA SUBUNIT” (The Governors of the University of Alberta, priority 2021, published 2023).

B1: angiostatin (protein)
chain: YLSECKTGNGKNYRGTMSKTKNGITCQKWSSTSPHRPRFSPATHPSEGLEENYCRNPDNDPQGPWCYTTDPEKRYDYCDILECEEECMHCSGENYDGKISKTMSGLECQAWDSQSPHAHGYIPSKFPNKNLKKNYCRNPDRELRPWCFTTDPNKRWELCDIPRCTTPPPSSGPTYQCLKGTGENYRGNVAVTVSGHTCQHWSAQTPHTHNRTPENFPCKNLDENYCRNPDGKRAPWCHTTNSQVRWEYCKIPSCDSSPVSTEQLAPTAPPELTPVVQDCYHGDGQSYRGTSSTTTTGKKCQSWSSMTPHRHQKTPENYPNAGLTMNYCRNPDADKGPWCFTTDPSVRWEYCNLKKCSGTEA

Key:
fibrinolysis = assay: In vitro fibrinolysis assay in citrated human plasma; assay type: biochemical; conditions: recalcified human plasma, thrombin + tPA 1 μg/ml, 2 hours 37° C.; combined peptides each 1 μM, aprotinin 10 μM
Protocol: Fibrinolysis Assays. Citrated human plasma (platelet-free) was recalcified to a final free Ca^2+ concentration of 2.5 mM. After recalcification, plasma was incubated with a peptide 1, 2, 3, or with combined a peptides 1-3 (each 1 μM), or with negative control 8 peptide (3 μM) or with aprotinin (10 μM) as positive control for inhibiting fibrinolysis. To initiate clotting ice-cold thrombin (0.3 U/ml) was added to each well, while to initiate fibrinolysis human tissue plasminogen activator (1 μg/ml; Sigma) was added. After 2 hours incubation at 37° C. the absorbance at 405 nm was measured using a Bio-Rad iMark microplate reader and the results were expressed as percent fibrinolysis.

angiostatin kringles 1-4 = target: T1, angiostatin kringles 1-4 (Homo sapiens, UniProt P00747); assay: Immunoprecipitation of angiostatin K1-4 after incubation with trypsinized ATP synthase subunit α, mass spectrometry of bound peptides; assay type: binding; conditions: for abundance based on peptide spectral matches (PSMs): angiostatin-bound peptides after immunoprecipitation; for binding to angiostatin (immunoprecipitation, mass spectrometry): peptides from trypsin digest of recombinant F1F0 ATP synthase subunit α incubated with purified angiostatin kringles 1-4
T1 construct: the resulting peptides incubated with purified angiostatin kringles 1-4
Protocol: Trypsin digestion of ATP synthase subunit α. Recombinant F1F0 ATP synthase subunit α was digested with trypsin, and following heat-inactivation of trypsin the resulting peptides incubated with purified angiostatin kringles 1-4. Subsequently, the angiostatin was immunoprecipitated and submitted for mass spectroscopy analysis to identify any potential bound peptides of subunit α.

eNOS protein expression = assay: Immunoblot of eNOS in angiostatin-treated hypoxic HMVEC-C; assay type: cell-based, Human; conditions: 48 hours hypoxic conditions, peptides tested with angiostatin
Protocol: (§1) Cell culture and hypoxia. Cardiac-derived Human microvascular endothelial cells from (HMVEC-C) were obtained from Lonza (Walkersville, Md., USA) and cultured in a humidified atmosphere at 37° C. and 5% CO2 in EGM-2 MV. Depending on the donor, the primary endothelial cells were serum starved for 4-16 h in EBM-2 and 0.5% FBS prior to exposure to hypoxic conditions. The time of serum starvation prior to treatment was titrated to induce approximately 40% apoptosis following treatment under normoxic conditions. Hypoxia was induced by exposing endothelial cells for 48 h under serum-starved conditions in a Billups-Rothenberg chamber continuously gassed with 95% N2-5% CO2.
(§2) Immunoblots. HMVEC-L lysates were subjected to 8% sodium dodecyl sulfate-polyacrylamide gel electrophoresis Blots were blocked overnight in TTBS and 5% non-fat milk and then cut at the 50 KDa across the membrane. Subsequently the >50 KDa upper membrane was incubated with either rabbit anti-human MMP-14 (MT1-MMP) (1 μg/ml) (Millipore) (Etobicoke, ONT, Canada), or mouse anti-eNOS (1:1000) (Abcam) (Toronto, ONT, Canada) for 2 h. Anti-mouse (1:10,000), or anti-rabbit (1:5000) horseradish peroxidase-conjugated antibodies were used as the secondary antibodies (Sigma, Oakville, ON, Canada). […] Blot bands were quantified using ImageJ software (Bio-Rad, Mississauga, ON, Canada) and expressed as arbitrary units of density per β-actin.

[1] = test system: MT1-MMP protein expression; assay: Immunoblot of MT1-MMP (MMP-14) in angiostatin-treated hypoxic HMVEC-C; assay type: cell-based, Human; conditions: 48 hours hypoxic conditions, peptides tested with angiostatin
Protocol: as §1, §2

MMP-2 protein expression = assay: Gelatin zymography of MMP-2 in HMVEC-C lysates; assay type: cell-based, Human; conditions: 48 hours hypoxic conditions, peptides tested with angiostatin
Protocol: as §1
Gelatin zymography. Gelatin zymography was used to assess MMP-2 levels within HMVEC-C lysates. Zymography was performed using 8% SDS-PAGE with copolymerized gelatin (2 mg/ml). After electrophoresis, gels were washed 3× for 20 min in 2% Triton X-100. Next, gels were washed 2· for 20 min in developing buffer (50 mM Tris-HCl pH 7.6, 150 mM NaCl, 5 mM CaCl2), and 0.05% NaN3) and then incubated in developing buffer at 37° C. overnight. Gels were stained with 0.05% Coomassie Brilliant Blue and then destained in a 4% ethanol and 8% acetic acid solution. Gelatinolytic activity was detected as transparent bands against a blue background of Coomassie-stained gelatin. […]

HMVEC-C = assay: Endothelial cell migration assay under hypoxia; assay type: cell-based, Human; conditions: hypoxia 48 hours, VEGF 10 ng/ml chemoattractant, angiostatin 600 nM; combined peptides 1 μM each
Protocol: Migration assays. 24-well plate inserts with […] pores (Falcon Corning, Tewksbury, Mass., USA) were coated with 1 mg/ml gelatin and incubated at 37° C. for 2 hours to allow gelatin to solidify. Excess gelatin was aspirated and inserts were left to dry overnight under UV light, then gently washed once with 100μl of PBS. Once approximately 80% confluent, HMVEC-C were serum starved for 8 hours in 0.5% FBS in EBM-2. Cells were trypsinized and seeded into the top chamber of the gelatin-coated inserts at a concentration of 25 000 cells/insert. Recombinant VEGF (10 ng/ml) in 0.5% FBS in EBM-2 was added to the corresponding bottom chambers to serve as a chemoattractant. HMVEC-C were treated with PBS control, angiostatin (600 nM), angiostatin (600 nM)+a peptide 1 through 3 (3 μM), angiostatin (600 nM)+negative-control 6 peptide (3 μM), and angiostatin (600 nM)+combined a peptide 1-3 (1 μM each). The system was incubated in hypoxia (95% N2, 5% CO2) for 48 hours. After incubation, the top layer of each insert was scraped gently using a Q-tip to remove the non-migrated cells. Migrated cells at the bottom of the insert were fixed in 4% formaldehyde in PBS for five minutes, followed by staining using Diffquik stain (Siemens Healthcare Diagnostics Inc., Newark, Del., USA). […] Cells were counted using ImageJ software, and expressed as migration percent of PBS control.

T1 sequence (P00747 79-466 limits assumed): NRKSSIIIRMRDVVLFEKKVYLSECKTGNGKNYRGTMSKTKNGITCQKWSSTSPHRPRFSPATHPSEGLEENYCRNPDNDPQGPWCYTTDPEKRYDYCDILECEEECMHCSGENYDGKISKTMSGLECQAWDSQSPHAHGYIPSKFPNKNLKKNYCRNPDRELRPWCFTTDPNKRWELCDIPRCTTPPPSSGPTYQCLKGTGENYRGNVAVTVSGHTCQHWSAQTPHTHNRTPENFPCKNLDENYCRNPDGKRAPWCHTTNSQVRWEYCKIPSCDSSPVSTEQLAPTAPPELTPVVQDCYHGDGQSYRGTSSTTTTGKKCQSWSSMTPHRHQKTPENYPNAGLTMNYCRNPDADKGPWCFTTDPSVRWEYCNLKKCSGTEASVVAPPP

Row | Molecule | abundance based on peptide spectral matches (PSMs) (angiostatin kringles 1-4) | binding to angiostatin (immunoprecipitation, mass spectrometry) (angiostatin kringles 1-4) | eNOS levels (immunoblot) (eNOS protein expression) | MT1-MMP levels (immunoblot) [1] | MMP-2 levels (gelatin zymography) (MMP-2 protein expression) | further results
1 | aprotinin |  |  |  |  |  | inhibition of fibrinolysis (fibrinolysis): fibrinolysis inhibitor
2 | TGTAEMSSILEER [Alpha peptide 1] | high abundance | bound to angiostatin |  |  |  | 
3 | AVDSLVPIGR [Alpha peptide 3] | medium abundance | bound to angiostatin |  |  |  | 
4 | VPTLQVLRPGLVV [delta peptide, reference compound] |  |  | failed to significantly increase | failed to significantly increase | failed to significantly increase | 
5 | TSIAIDTIINQK [Alpha peptide 2] | medium abundance | bound to angiostatin |  |  |  | 
6 | B1 |  |  | significant reduction | significant reduction | significant reduction | HMVEC-C migration (HMVEC-C): decreased
